In assay [1] the target is T1, SUDV GP (SUDV, UniProt Q7T9D9 33-650).
T1 sequence: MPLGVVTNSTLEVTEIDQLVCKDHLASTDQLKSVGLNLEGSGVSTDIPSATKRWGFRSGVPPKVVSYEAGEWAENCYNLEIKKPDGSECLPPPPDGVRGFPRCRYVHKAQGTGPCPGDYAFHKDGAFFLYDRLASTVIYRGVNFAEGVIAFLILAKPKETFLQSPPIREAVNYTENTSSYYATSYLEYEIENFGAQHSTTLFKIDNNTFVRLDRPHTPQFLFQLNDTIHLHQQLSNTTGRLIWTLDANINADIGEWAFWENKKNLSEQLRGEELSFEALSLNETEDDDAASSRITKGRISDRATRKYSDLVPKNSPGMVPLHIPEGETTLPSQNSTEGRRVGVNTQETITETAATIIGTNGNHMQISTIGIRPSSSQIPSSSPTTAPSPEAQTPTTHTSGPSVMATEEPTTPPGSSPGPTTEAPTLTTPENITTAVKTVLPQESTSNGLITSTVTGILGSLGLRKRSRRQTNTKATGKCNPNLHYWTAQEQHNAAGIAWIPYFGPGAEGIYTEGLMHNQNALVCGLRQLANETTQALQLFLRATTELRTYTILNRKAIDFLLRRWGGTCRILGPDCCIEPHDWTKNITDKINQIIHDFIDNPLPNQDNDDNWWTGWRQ
The assay can be described thus: ELISA, GP coated at 1 μg/mL, 5A8 in 1:3 dilutions. (In general: An ELISA detects its analyte on a solid surface through an enzyme-linked reagent.)

Assay [2] concerns the target T2, RESTV GP (RESTV, UniProt Q66799 34-651).
T2 sequence: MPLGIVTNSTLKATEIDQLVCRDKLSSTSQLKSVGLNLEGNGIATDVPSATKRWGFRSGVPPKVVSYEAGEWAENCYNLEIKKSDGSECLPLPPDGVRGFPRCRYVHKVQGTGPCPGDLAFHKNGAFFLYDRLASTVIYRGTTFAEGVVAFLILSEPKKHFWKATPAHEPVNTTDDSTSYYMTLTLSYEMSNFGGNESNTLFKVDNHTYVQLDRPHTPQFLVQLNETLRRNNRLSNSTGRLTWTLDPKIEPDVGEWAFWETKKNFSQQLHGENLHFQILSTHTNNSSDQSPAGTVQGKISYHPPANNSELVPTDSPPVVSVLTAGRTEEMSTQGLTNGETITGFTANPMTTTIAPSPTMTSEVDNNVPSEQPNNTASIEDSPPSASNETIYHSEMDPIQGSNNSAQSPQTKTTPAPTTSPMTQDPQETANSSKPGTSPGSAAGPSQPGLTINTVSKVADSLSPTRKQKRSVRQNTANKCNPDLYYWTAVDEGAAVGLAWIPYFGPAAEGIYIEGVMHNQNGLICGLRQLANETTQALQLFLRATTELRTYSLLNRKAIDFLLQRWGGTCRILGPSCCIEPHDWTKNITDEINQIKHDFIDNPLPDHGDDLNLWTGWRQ
Kind of assay: ELISA, GP coated at 1 μg/mL, 5A8 in 1:3 dilutions.

Assay [3] deals with GP 227-295 (Ebola virus (EBOV), UniProt Q05320 227-295). The assay can be described thus: ELISA, truncated GP coated, 5A8 titrated (method of Example 2).
Assay [4] deals with GP 158-295 (Ebola virus (EBOV), UniProt Q05320 158-295). Described as above.
Assay [5] addresses GP 95-295 (Ebola virus (EBOV), UniProt Q05320 95-295). The description is as above.
In assay [6] the target is GP 33-310;463-558 (Ebola virus (EBOV), UniProt Q05320 33-310; Q05320 463-558). The description is as above.
Assay [7] has as its target sGP (Ebola virus (EBOV), UniProt P60170 33-324). The description is as above.
The target in assay [8] is GP1 (Ebola virus (EBOV), UniProt Q05320 33-501). The assay is described as above.
In assay [9] the target is T3, EBOV GP (Ebola virus (EBOV), UniProt Q05320 33-650).
T3 sequence: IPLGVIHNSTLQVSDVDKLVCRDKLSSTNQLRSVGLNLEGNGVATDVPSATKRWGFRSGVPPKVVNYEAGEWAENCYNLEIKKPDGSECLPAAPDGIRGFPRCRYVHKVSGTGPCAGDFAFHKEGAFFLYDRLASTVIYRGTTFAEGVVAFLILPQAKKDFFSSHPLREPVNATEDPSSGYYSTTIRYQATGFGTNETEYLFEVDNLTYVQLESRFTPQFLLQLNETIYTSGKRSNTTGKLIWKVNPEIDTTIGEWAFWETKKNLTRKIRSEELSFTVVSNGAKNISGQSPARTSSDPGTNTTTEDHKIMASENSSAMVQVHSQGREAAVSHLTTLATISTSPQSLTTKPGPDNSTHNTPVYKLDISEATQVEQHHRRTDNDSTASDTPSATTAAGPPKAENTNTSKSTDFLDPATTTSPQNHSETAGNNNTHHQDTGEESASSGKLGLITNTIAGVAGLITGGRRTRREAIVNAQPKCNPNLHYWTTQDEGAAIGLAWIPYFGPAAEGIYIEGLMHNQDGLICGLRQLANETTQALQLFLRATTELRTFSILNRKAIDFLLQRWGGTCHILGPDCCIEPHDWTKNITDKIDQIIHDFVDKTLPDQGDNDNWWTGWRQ
The assay can be described thus: ELISA, GP coated at 1 μg/mL, 5A8 from 10 μg/mL in 1:3 dilutions.

B1: 单克隆抗体5A8 (antibody, V domains shown)
VH: EVQLLESGGGLVKPGGSLRLSCAASGFTFSDYYMNWIRQAPGKGLEWVSYISSSGKTIYYADSVKGRFTISRDNAKKSLYLQMNSLRAEDTAVYYCARDREIVISTTILLGSDHYAMDVWGQGTTVTVSS
VL: DIQMTQSPFTLSASVGDRVTITCRASQSINSYLNWYQQKPGKAPKLLIYSASSLQSGVPSRFSGSGSGTDFTLTISSLQPEDFAIYYCQQTYRTPYTFGQGTKVEIKT
The EC50 is the concentration needed to bring the measured effect to its halfway point. The low end stands for higher potency in that assay, the high end for lower potency in that assay. As for B1, the binding result in assay [1] and in [2] was “no binding (tested: 10μg/mL (highest concentration tested))” throughout. The EC50 in assay [3] is 12.6 ng/mL; in assay [4], 20 ng/mL; in assay [5] it was 7.1 ng/mL; in assay [6], 4.9 ng/mL; in assay [7], 7.5 ng/mL; in assay [8], 6.9 ng/mL. This molecule gave an EC50 in [9] of 14 ng/mL.

Values taken from patent CN111138528A (INST MILITARY MEDICINE ACADEMY MILITARY SCIENCES PLA, dated 2020).
